{
  "source": "paper PMC11164701",
  "binders": {"B1": {"name": "periplasmic protein CpxP (natural protein)", "chain": "AEVGSGDNWHPGEELTQRSTQSHMFDGISLTEHQRQQMRDLMQQARHEQPPVNVSELETMHRLVTAENFDENAVRAQAEKMANEQIARQVEMAKVRNQMYRLLTPEQQAVLNEKHQQRMEQLRDVTQWQKSSSLKLLSSSNSRSQ"}},
  "molecular_target": "CpxA^QTY (water-soluble QTY-code variant of the sensor histidine kinase CpxA), his-tagged (E. coli) (UniProt P0AE82)",
  "data": [
    {"binder": "B1", "values": [
      {"measurement": "inhibition of the autokinase activity of CpxA^QTY (1 μM, 1 mM ATP, RT, 2 min, anti-pHis western blot) by different concentrations of CpxP; CpxP excess needed for inhibition by approximately half (fold (CpxP over kinase))", "result": 10}
    ]}
  ]
}
